Laboratory results from article PMC5316894, “Cationic amino acid transporters play key roles in the survival and transmission of apicomplexan parasites” (Nature Communications, 2017).

B1: PbNPT1 (PbNPT1-HA) (Plasmodium berghei ANKA) (protein)
chain: MNESNCTKIVNFLKGMRLKTNPNLPGAKQKTPLNIHRFYLLLIIIIYTATSACIYFDWTSIRNLLLNVGKYEHLNISKYADITLSPQYKKINNLYPMTLAIHFTMSVFCGFLYDHIGPKFTAIIGQGFNILSWIFLSIDTTKIDTTLIGFIFLGLGADTAFIPILTVSNLFPDISTFIMTVIGAAASLSYAVPATLNFVYKKYPHFPFYYICYGYIFIILIPCLLVATFLLPMKPFKGLDYYLENDQESDSKNKEQISYTDNDVEMQPSLIQNGNTNVSNNVNKNKATKNIIEGENFHKQSILLFFKVLLSYPSICIIVYFILFNISTVFYGMVTDIYFSYNKSIINIINILMPISFIPCIIFGRFINKYGAAIIIIIMNAFSALMHLTALIKHQAAGLISAFLYMCAASIYTSQIYCFLLNAFPSVVFGKLLGITSLFGGMFSLFCEKLYDNISNSSGNKNDPTTISILLAISFIIMFLPLSILYTRNYEKNIESVNSEKNQIQA
notes: full ORF, synthetic codon-harmonized gene, C-terminal HA tag, cRNA in Xenopus laevis oocytes (pGHJ-HA)
B2: TgNPT1 (TgNPT1-HA) (Toxoplasma gondii ME49) (protein)
chain: MAGLLSSCCGRVYALLPDSAHPSAQQKTPFGVNRYVLLVIYMIYALLTSSVYFGWRSMSAMLFKSGQFSWVCTGESADTSPEEGETDYLCALQDTKVQSLFTIAMACHFTCSAVAGYLLDTVGPKAVALLGQTFNALAWILLAFSGPNFRSVYPAFVFMGAGADVSVYPTLLIVNLFPGSTALIMATLGACISLSFFVPLVLRTMWESTGISFEAVCIGYAVAGPILCAVVAFFFIPFKAFKGVDNFSACVEAEKLANSPTAQSSPKAVDSPPCDEGASSRGRLAVSHNTERTAPDDEQEKDNTERISLSDLACDPRFKKQKVSFSSQAFTFLYFGICLYFTVCGWVMAYYQEAAGRFLCNDAEYTLEILTPLSTIPCLLFGVVINRIGIMPVILMLNTIGLLTYVCVVAAESVVAQYFSVIFFFMYISIFTTQMYVFVESTFDSAHFGKLIGVASLIGGLLSLISNVLYGDVTVGMLNGDTRPVVIALLAVIILMYPILLAMRTKRNRKKQMEQEDIRSRVLELKAAHAADAA
notes: full ORF from RH cDNA, C-terminal HA tag, cRNA in Xenopus laevis oocytes (pGHJ-HA); calculated 58 kDa, runs at ~40 kDa in parasites; 12 predicted TM domains

Legend:
Experiment in all cases: cells, lysate or membranes
[1] = substrate: N=C(N)NCCC[C@H](N)C(=O)O; format: cell-based, Plasmodium berghei; details: ND96, pH 7.4, 125 μM unlabelled methionine present to lower background, labelled compound
[2] = substrate: NCCCC[C@H](N)C(=O)O; format: cell-based, Plasmodium berghei; details: ND96, pH 7.4, 500 μM unlabelled methionine present to lower background, labelled compound
[3] = substrate: N=C(N)NCCC[C@H](N)C(=O)O; format: cell-based, Toxoplasma gondii; details: ND96, pH 7.4, 0-1 mM arginine, labelled compound, Figure 3 legend prints 88±16

Protein | Km [1] | Km [2] | Km [3]
B1 | 41 ± 9 µM | 130 ± 26 µM | 
B2 |  |  | 88 ± 15 µM
